To fix the notation:
B1: ER membrane protein complex subunit 2 (Homo sapiens), Q15006 (parent)
chain: MAKVSELYDVTWEEMRDKMRKWREENSRNSEQIVEVGEELINEYASKLGDDIWIIYEQVMIAALDYGRDDLALFCLQELRRQFPGSHRVKRLTGMRFEAMERYDDAIQLYDRILQEDPTNTAARKRKIAIRKAQGKNVEAIRELNEYLEQFVGDQEAWHELAELYINEHDYAKAAFCLEELMMTNPHNHLYCQQYAEVKYTQGGLENLELSRKYFAQALKLNNRNMRALFGLYMSASHIASNPKASAKTKKDNMKYASWAASQINRAYQFAGRSKKETKYSLKAVEDMLETLQITQS
partner: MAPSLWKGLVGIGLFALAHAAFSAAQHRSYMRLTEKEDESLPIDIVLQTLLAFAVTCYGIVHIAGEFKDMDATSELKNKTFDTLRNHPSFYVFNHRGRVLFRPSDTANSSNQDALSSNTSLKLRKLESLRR
B2: ER membrane protein complex subunit 2 (Homo sapiens), Q15006 (parent)
chain: B1 chain
partner: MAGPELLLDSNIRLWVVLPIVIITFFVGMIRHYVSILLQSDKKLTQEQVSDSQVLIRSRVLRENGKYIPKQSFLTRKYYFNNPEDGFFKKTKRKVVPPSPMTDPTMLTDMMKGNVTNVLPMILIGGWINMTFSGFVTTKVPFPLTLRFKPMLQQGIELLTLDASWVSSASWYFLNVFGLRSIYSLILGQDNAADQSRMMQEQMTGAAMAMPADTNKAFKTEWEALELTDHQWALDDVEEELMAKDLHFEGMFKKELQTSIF
B3: ER membrane protein complex subunit 2 (Homo sapiens), Q15006 (parent)
chain: B1 chain
partner: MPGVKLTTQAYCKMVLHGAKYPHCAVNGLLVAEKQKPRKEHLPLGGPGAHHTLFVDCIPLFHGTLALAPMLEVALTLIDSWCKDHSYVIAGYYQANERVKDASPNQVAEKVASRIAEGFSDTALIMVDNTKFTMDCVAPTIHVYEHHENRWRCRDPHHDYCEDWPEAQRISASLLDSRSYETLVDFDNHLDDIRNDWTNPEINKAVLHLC
B4: ER membrane protein complex subunit 6 (Homo sapiens), Q9BV81 (parent)
chain: MAAVVAKREGPPFISEAAVRGNAAVLDYCRTSVSALSGATAGILGLTGLYGFIFYLLASVLLSLLLILKAGRRWNKYFKSRRPLFTGGLIGGLFTYVLFWTFLYGMVHVY
partner: B1 partner

The results in this text go back to IntAct's records for PubMed 32439656.

Variants of B1 are the subject of the first assay. As to conditions: with emc5_human MMGT1, Q8N4V1.
On to E156A, for which the “effect of a mutation on the interaction” value is on record as “disrupting interaction strength”. For R28A, the “effect of a mutation on the interaction” value was “disrupting interaction strength”. As for E180A, the “effect of a mutation on the interaction” value was “with no effect”. Regarding E160A, the “effect of a mutation on the interaction” value is reported as “disrupting interaction strength”.

Y200A: the “effect of a mutation on the interaction” value is listed as “disrupting interaction strength”. In the case of Y171A, the “effect of a mutation on the interaction” value was “with no effect”. As to W259A, the “effect of a mutation on the interaction” value is listed as “with no effect”. As for R227A, the “effect of a mutation on the interaction” value is given as “disrupting interaction strength”.

In the next assay the parent is B2. As to conditions: with emc3_human EMC3, Q9P0I2.
R227A: the “effect of a mutation on the interaction” value is reported as “disrupting interaction strength”.

Turning to E180A, the “effect of a mutation on the interaction” value is on record as “disrupting interaction strength”. With W259A, the “effect of a mutation on the interaction” value is “disrupting interaction strength”.

Turning to Y200A, the “effect of a mutation on the interaction” value was “with no effect”.

Turning to E156A, the “effect of a mutation on the interaction” value was “with no effect”. Regarding E160A, the “effect of a mutation on the interaction” value is “with no effect”. With R28A, the “effect of a mutation on the interaction” value is recorded as “with no effect”.

As to Y171A, the “effect of a mutation on the interaction” value is “with no effect”.

The variants in another assay derive from B3. As to conditions: with emc8_human EMC8, O43402.
In the case of E160A, the “effect of a mutation on the interaction” value is “with no effect”. The same measure, in the same setting: the value for E180A was “with no effect”; that for R227A was “disrupting interaction strength”; that for Y171A was “with no effect”. Take W259A: the “effect of a mutation on the interaction” value is on record as “with no effect”. Consider Y200A, for which the “effect of a mutation on the interaction” value is given as “disrupting interaction strength”. In the case of E156A, the “effect of a mutation on the interaction” value is recorded as “with no effect”. Take R28A: the “effect of a mutation on the interaction” value is recorded as “with no effect”.

The variants in the next assay derive from B4. The conditions noted are these: with emc5_human MMGT1, Q8N4V1.
For the variant G45Y;G48A, the “effect of a mutation on the interaction” value was “with no effect”. Regarding V33K;L36K, the “effect of a mutation on the interaction” value was “with no effect”.
